# Reference: PMC4864278 (The EMBO Journal, 2016)
# Experiments:
# [1] = target: the molecule itself; assay: SAXS; SEC in line with SAXS, SWING beamline at SOLEIL, SEC-3 300 Å Agilent column, 15°C; 2.5 mg/ml TRIM25 RBCC, 6 mg/ml TRIM32 RBCC injected
# [2] = target: the molecule itself; assay: SAXS; batch SAXS, Diamond Light Source beamline B21; at least three dilutions of each construct; concentrations as in Table 2
# ubiquitin = ubiquitin (bovine, UniProt P0CG53 1-76, isopeptide-linked to UBE2D1); assay: crystal structure; TRIM25 RING domain (8 mg/ml) mixed with isopeptide-linked UBE2D1-Ub (10 mg/ml) at a 1:1 molar ratio; 100 mM Tris pH 8.5, 10% PEG 20,000, 18°C; 2.34 Å; details: both partners purified
Binder,stoichiometry N [1],further results
"TRIM32 RBCC (1–354) (domain or fragment, UniProt Q13049 1-354, looked up) MAAAAASHLNLDALREVLECPICMESFTEEQLRPKLLHCGHTICRQCLEKLLASSINGVRCPFCSKITRITSLTQLTDNLTVLKIIDTAGLSEAVGLLMCRSCGRRLPRQFCRSCGLVLCEPCREADHQPPGHCTLPVKEAAEERRRDFGEKLTRLRELMGELQRRKAALEGVSKDLQARYKAVLQEYGHEERRVQDELARSRKFFTGSLAEVEKSNSQVVEEQSYLLNIAEVQAVSRCDYFLAKIKQADVALLEETADEEEPELTASLPRELTLQDVELLKVGHVGPLQIGQAVKKPRTVNVEDSWAMEATASAASTSVTFREMDMSPEEVVASPRASPAKQRGPEAASNIQQ",4,–
"TRIM25 RBCC (1–433) (domain or fragment, UniProt Q14258 1-433, looked up) MAELCPLAEELSCSICLEPFKEPVTTPCGHNFCGSCLNETWAVQGSPYLCPQCRAVYQARPQLHKNTVLCNVVEQFLQADLAREPPADVWTPPARASAPSPNAQVACDHCLKEAAVKTCLVCMASFCQEHLQPHFDSPAFQDHPLQPPVRDLLRRKCSQHNRLREFFCPEHSECICHICLVEHKTCSPASLSQASADLEATLRHKLTVMYSQINGASRALDDVRNRQQDVRMTANRKVEQLQQEYTEMKALLDASETTSTRKIKEEEKRVNSKFDTIYQILLKKKSEIQTLKEEIEQSLTKRDEFEFLEKASKLRGISTKPVYIPEVELNHKLIKGIHQSTIDLKNELKQCIGRLQEPTPSSGDPGEHDPASTHKSTRPVKKVSKEEKKSKKPPPVPALPSKLPTFGAPEQLVDLKQAGLEAAAKATSSHPNS",2,–
"TRIM32 RING/B-box2 (1–140) (domain or fragment, UniProt Q13049 1-140, looked up) MAAAAASHLNLDALREVLECPICMESFTEEQLRPKLLHCGHTICRQCLEKLLASSINGVRCPFCSKITRITSLTQLTDNLTVLKIIDTAGLSEAVGLLMCRSCGRRLPRQFCRSCGLVLCEPCREADHQPPGHCTLPVKE",–,stoichiometry N [2]: 2
"TRIM25 RING domain (1–82) (domain or fragment, UniProt Q14258 1-82, looked up) MAELCPLAEELSCSICLEPFKEPVTTPCGHNFCGSCLNETWAVQGSPYLCPQCRAVYQARPQLHKNTVLCNVVEQFLQADLA",–,binding result (ubiquitin): binds
